In publication PMC12690290:

Key:
[1] = molecular target: Low-density lipoprotein receptor 1 (low-density lipoprotein-related protein 1) (human (endogenous in HepG2 and primary human hepatocytes)) (UniProt Q07954); experiment: affinity purification with mass spectrometry; as a6, RAP (500 nM) added as competitor to human hepatocyte extract and heme–HPX Affi-Gel 15; amount of receptor isolated
LRP1 (Homo sapiens) = LRP1 (Homo sapiens) (UniProt Q07954); experiment: surface plasmon resonance; conditions: cited from earlier work

percent decrease of LRP1 isolated on proto-heme–human HPX Affi-Gel 15 with 500 nM RAP [1] [%] | Substance | Kd (LRP1 (Homo sapiens)) [nM]
50 | RAP (receptor associated protein) added at 500 nM (from UniProt P30533 35-357) (natural protein) | 
 | hemopexin (from UniProt P02790) | 4
